Experimental findings from US20260285962 (published 2026) are described below.

Assay [1] has as its target T1, Human Activin A-Fc (human).
T1 chain: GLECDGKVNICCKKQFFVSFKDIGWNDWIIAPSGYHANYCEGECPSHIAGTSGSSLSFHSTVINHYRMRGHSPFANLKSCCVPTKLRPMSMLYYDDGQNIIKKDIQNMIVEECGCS
The assay is described as follows: BLI, bivalent.

Another assay concerns the target Human GDF8 (human, UniProt O14793). Nature of the assay: BLI, bivalent.
For the next assay, the target named is T2, BMP9 (UniProt Q9UK05).
T2 chain: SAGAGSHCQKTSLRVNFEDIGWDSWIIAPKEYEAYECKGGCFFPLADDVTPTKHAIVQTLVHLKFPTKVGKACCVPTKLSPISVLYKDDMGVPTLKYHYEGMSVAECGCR
The assay is described as follows: BLI, bivalent. For orientation: Biolayer interferometry detects binding as a change in optical thickness at a sensor tip.

For a further assay, the target named is T3, Human GDNF (human, UniProt P39905).
T3 chain: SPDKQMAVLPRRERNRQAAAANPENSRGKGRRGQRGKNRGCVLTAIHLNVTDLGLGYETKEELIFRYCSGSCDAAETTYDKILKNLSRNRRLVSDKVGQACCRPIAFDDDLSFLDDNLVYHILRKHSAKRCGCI
Nature of the assay: BLI, bivalent.

In assay [2] the target is T4, Human GDF10 (human, UniProt P55107).
T4 chain: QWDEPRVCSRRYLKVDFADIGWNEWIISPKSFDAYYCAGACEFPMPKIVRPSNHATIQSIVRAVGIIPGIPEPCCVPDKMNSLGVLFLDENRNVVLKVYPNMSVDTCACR
Nature of the assay: BLI, bivalent.

Assay [3] concerns the target T5, Human GDF11 (human, UniProt O95390).
T5 chain: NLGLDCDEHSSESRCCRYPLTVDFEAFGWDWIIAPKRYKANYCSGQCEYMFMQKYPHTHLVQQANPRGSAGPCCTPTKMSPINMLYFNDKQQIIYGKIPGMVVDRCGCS
The assay is described as follows: BLI, bivalent.

Another assay concerns the target T6, Human Activin B (human).
T6 chain: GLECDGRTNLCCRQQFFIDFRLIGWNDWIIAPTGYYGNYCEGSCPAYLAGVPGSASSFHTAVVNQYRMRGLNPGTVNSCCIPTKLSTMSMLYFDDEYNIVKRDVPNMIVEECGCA
The assay is described as follows: BLI, bivalent.

Another assay has as its target T7, BMP10 (UniProt O95393).
T7 chain: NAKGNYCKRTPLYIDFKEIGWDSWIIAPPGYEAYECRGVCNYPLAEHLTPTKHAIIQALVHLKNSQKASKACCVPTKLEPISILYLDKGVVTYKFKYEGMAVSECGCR
Nature of the assay: BLI, bivalent.

The target of another assay is T8, Human Follistatin 300 (human, UniProt P19883).
T8 chain: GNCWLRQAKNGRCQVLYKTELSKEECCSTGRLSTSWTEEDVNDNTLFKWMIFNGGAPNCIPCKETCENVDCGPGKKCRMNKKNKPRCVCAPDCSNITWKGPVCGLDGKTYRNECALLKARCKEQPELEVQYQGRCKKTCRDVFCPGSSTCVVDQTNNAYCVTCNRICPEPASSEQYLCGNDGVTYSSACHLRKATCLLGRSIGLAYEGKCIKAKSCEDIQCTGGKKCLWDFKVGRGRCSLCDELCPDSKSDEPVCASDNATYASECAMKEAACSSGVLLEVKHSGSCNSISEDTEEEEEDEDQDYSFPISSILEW
Nature of the assay: BLI, bivalent.

A further assay addresses T9, GDF15-Fc (UniProt Q99988).
T9 chain: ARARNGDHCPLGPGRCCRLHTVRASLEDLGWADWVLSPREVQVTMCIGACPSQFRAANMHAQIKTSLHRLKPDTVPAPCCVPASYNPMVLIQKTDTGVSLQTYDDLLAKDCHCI
The assay is described as follows: BLI, bivalent.

The target in assay [4] is T1, Human Activin A-Fc. The assay is described as follows: BLI, monovalent.
For assay [5], the target named is T10, Human Activin A (biotinylated) (human).
T10 chain: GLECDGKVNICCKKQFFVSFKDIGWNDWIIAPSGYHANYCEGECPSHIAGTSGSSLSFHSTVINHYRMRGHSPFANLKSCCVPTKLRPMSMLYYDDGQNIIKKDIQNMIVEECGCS
The assay is described as follows: SPR, 25C, monovalent. (SPR reads the build-up and loss of mass on a sensor chip optically.)

Assay [6] has as its target T4, Human GDF10. Nature of the assay: BLI, bivalent.
The target of assay [7] is T5, Human GDF11. Nature of the assay: BLI, bivalent.

Human GDF8, sequence (O14793 267-375): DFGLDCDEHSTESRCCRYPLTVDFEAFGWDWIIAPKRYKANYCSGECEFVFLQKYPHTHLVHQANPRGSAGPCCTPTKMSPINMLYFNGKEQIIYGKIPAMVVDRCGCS

B1: Clone B IgG (antibody, V domains shown)
VH: QLQLQESGPGLVKPSETLSLTCTVSGGSISSQQYYWGWIRQPPGKGLEWIGSISYAASTYYNPSLKSRVTISVDTSKNQFSLKLSSVTAADTAVYYCAREGYDSYSYDVWGQGTMVTVSS
VL: EIVLTQSPATLSVSPGERATLSCRASQSVGSNLAWYQQKPGQAPRLLIYGASTRATGIPARFSGSGSGTEFTLTISSLQSEDFAVYYCQQYNFYPPITFGGGTKVEIK
Consider B1, for which the Kd with Human Activin A-Fc [1] was 0.545 nM; with Human Activin B, 0.766 nM. The binding result with Human GDF8, with BMP9, with Human GDNF, in the assay with Human GDF10 [2], with Human GDF11 [3] and with BMP10 was “no binding” in each case. In addition, the binding result in the assay with Human Follistatin 300 and in the assay with GDF15-Fc was “no binding” in each case.

B2: Clone B Fab (antibody, V domains shown)
VH: QLQLQESGPGLVKPSETLSLTCTVSGGSISSQQYYWGWIRQPPGKGLEWIGSISYAASTYYNPSLKSRVTISVDTSKNQFSLKLSSVTAADTAVYYCAREGYDSYSYDVWGQGTMVTVSS
VL: EIVLTQSPATLSVSPGERATLSCRASQSVGSNLAWYQQKPGQAPRLLIYGASTRATGIPARFSGSGSGTEFTLTISSLQSEDFAVYYCQQYNFYPPITFGGGTKVEIK
With B2, the Kd was determined as 2.1 nM with Human Activin A-Fc [4] and 0.903 nM in [5].

B3: Clone A Fab (antibody, V domains shown)
VH: QLQLQESGPGLVKPSETLSLTCTVSGGSISSSSYYWGWIRQPPGKGLEWIGSISYSGSTYYNPSLKSRVTISVDTSKNQFSLKLSSVTAADTAVYYCAREGYDSYSYDVWGQGTMVTVSS
VL: EIVLTQSPATLSVSPGERATLSCRASQSVGSNLAWYQQKPGQAPRLLIYGASTRATGIPARFSGSGSGTEFTLTISSLQSEDFAVYYCQQYNFYPPITFGGGTKVEIK
As for B3, the Kd with Human Activin A-Fc [4] is 3.55 nM; in assay [5], 1.64 nM.

B4: Clone A IgG (antibody, V domains shown)
VH: QLQLQESGPGLVKPSETLSLTCTVSGGSISSSSYYWGWIRQPPGKGLEWIGSISYSGSTYYNPSLKSRVTISVDTSKNQFSLKLSSVTAADTAVYYCAREGYDSYSYDVWGQGTMVTVSS
VL: EIVLTQSPATLSVSPGERATLSCRASQSVGSNLAWYQQKPGQAPRLLIYGASTRATGIPARFSGSGSGTEFTLTISSLQSEDFAVYYCQQYNFYPPITFGGGTKVEIK
Turning to B4, the Kd in the assay with Human Activin A-Fc [1] was found to be 0.661 nM; with Human Activin B, 0.76 nM. The binding result with Human GDF8, with BMP9, in the assay with Human GDNF, in the assay with Human GDF10 [2], with Human GDF11 [3] and with BMP10 was “no binding” each time. Besides, the binding result with Human Follistatin 300 and with GDF15-Fc was “no binding” in each case.

B5: Clone C IgG (antibody, V domains shown)
VH: QLQLQESGPGLVKPSETLSLTCTVSGGSISSYDPYWGWIRQPPGKGLEWIGSISYSGSTLYNPSLKSRVTISVDTSKNQFSLKLSSVTAADTAVYYCAREVSYLGSRRYGMDVWGQGTTVTVSS
VL: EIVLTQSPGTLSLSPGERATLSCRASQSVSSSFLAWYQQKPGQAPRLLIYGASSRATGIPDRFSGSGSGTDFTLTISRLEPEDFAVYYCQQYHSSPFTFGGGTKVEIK
Take B5: the Kd turned out to be 25.8 nM with Human GDF10 [6], 0.552 nM with Human Activin A-Fc [1], 8.41 nM with Human GDF11 [7] and 0.861 nM with Human Activin B. The binding result with Human GDF8, with BMP9, in the assay with Human GDNF, in the assay with BMP10, with Human Follistatin 300 and with GDF15-Fc was “no binding” in each case.

B6: Clone C Fab (antibody, V domains shown)
VH: QLQLQESGPGLVKPSETLSLTCTVSGGSISSYDPYWGWIRQPPGKGLEWIGSISYSGSTLYNPSLKSRVTISVDTSKNQFSLKLSSVTAADTAVYYCAREVSYLGSRRYGMDVWGQGTTVTVSS
VL: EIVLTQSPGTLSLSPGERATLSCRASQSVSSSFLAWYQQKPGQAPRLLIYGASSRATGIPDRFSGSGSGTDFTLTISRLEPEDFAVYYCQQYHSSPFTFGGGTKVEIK
On to B6, for which the Kd with Human Activin A-Fc [4] worked out at 0.963 nM; in assay [5], 0.0832 nM.
